Experimental data as given in publication PMC9917023 (2023).
Non-standard residues stand in square brackets, D forms with d. No end group written: not given here.

T1: tau R3 domain 304-336 (Homo sapiens, UniProt P10636)
T1 chain: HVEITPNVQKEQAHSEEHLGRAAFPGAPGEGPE

B1: TF2D-5a (peptide)
chain: [dD]GG[dY][dQ][dI][dL][dF][dK][dI][dP]GG[dH][dI][dH][dR][dR][dR][dR][dR]-NH2
modifications: N-terminus assumed
SMILES: CC[C@@H](C)[C@@H](NC(=O)[C@@H](Cc1c[nH]cn1)NC(=O)CNC(=O)CNC(=O)[C@H]1CCCN1C(=O)[C@H](NC(=O)[C@@H](CCCCN)NC(=O)[C@@H](Cc1ccccc1)NC(=O)[C@@H](CC(C)C)NC(=O)[C@H](NC(=O)[C@@H](CCC(N)=O)NC(=O)[C@@H](Cc1ccc(O)cc1)NC(=O)CNC(=O)CNC(=O)[C@H](N)CC(=O)O)[C@H](C)CC)[C@H](C)CC)C(=O)N[C@H](Cc1c[nH]cn1)C(=O)N[C@H](CCCNC(=N)N)C(=O)N[C@H](CCCNC(=N)N)C(=O)N[C@H](CCCNC(=N)N)C(=O)N[C@H](CCCNC(=N)N)C(=O)N[C@H](CCCNC(=N)N)C(N)=O
B2: TF2D-5 (peptide)
chain: [dD]GG[dY][dQ][dI][dL][dF][dK][dI][dP]GG[dH][dI][dH]-NH2
modifications: N-terminus assumed
SMILES: CC[C@@H](C)[C@@H](NC(=O)[C@@H](Cc1c[nH]cn1)NC(=O)CNC(=O)CNC(=O)[C@H]1CCCN1C(=O)[C@H](NC(=O)[C@@H](CCCCN)NC(=O)[C@@H](Cc1ccccc1)NC(=O)[C@@H](CC(C)C)NC(=O)[C@H](NC(=O)[C@@H](CCC(N)=O)NC(=O)[C@@H](Cc1ccc(O)cc1)NC(=O)CNC(=O)CNC(=O)[C@H](N)CC(=O)O)[C@H](C)CC)[C@H](C)CC)C(=O)N[C@H](Cc1c[nH]cn1)C(N)=O

Experiments:
[1] = biological target: T2, full-length tau 441 (Homo sapiens, UniProt P10636); assay: MST
T2 sequence (P10636 2-758): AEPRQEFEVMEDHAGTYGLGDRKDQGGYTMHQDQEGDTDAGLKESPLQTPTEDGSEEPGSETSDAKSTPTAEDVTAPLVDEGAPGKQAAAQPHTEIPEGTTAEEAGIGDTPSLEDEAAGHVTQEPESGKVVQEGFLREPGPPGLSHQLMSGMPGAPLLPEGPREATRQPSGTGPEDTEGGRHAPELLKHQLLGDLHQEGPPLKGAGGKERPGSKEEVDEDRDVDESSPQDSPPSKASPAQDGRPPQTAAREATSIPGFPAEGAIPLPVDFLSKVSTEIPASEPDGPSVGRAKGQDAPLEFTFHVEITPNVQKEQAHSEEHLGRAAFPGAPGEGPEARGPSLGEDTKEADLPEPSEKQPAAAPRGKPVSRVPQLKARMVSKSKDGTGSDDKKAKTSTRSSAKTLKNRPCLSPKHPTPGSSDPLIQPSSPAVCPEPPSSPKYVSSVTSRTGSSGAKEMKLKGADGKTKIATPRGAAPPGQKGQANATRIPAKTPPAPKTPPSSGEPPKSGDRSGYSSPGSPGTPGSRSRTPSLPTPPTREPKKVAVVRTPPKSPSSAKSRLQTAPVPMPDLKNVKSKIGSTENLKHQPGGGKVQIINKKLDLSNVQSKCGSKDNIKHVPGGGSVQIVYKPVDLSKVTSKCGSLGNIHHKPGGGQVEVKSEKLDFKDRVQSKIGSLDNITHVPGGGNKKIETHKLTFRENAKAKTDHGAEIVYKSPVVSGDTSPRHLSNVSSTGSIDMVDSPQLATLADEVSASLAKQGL

[2] = biological target: T1, tau R3 domain 304-336; assay: SPR
[3] = biological target: T2, full-length tau 441; assay: SPR

Binder | Kd [1] [nM] | Kd [2] [nM] | Kd [3] [nM]
[dD]GG[dY][dQ][dI][dL][dF][dK][dI][dP]GG[dH][dI][dH][dR][dR][dR][dR][dR]-NH2 (also: CF633 label, position not given here) | 11.7 | – | –
B1 | – | 0.007 | 6.1
B2 | – | – | 1.3
[dD]GG[dY][dQ][dI][dL][dF][dK][dI][dP]GG[dH][dI][dH]-NH2 (also: CF633 label, position not given here) | 0.308 | – | –
